# Source: patent US20210277137A1 (AbbVie / Abbott, published 2021)
# Legend:
# [1] = target: T1, CD40-human Fc (huFc) fusion protein (Creative BioMart) (human, UniProt P25942 21-193); test: ELISA: CD40-huFc mixed with antibody, binding to plate-bound HA-tagged CD40L; further: test concentration or dose not given here
# T1 construct: bought; also called CD40-huFc; not shown: human Fc
# Excerpt: After development with TMB (3, 3′, 5, 5′-tetramethylbenzidine) substrate, the plates were read at OD₄₅₀.
# [2] = target: T2, human CD40 on cells (human, UniProt P25942 21-277); test: cell-based or functional assay
# T2 sequence (P25942 21-277 limits assumed): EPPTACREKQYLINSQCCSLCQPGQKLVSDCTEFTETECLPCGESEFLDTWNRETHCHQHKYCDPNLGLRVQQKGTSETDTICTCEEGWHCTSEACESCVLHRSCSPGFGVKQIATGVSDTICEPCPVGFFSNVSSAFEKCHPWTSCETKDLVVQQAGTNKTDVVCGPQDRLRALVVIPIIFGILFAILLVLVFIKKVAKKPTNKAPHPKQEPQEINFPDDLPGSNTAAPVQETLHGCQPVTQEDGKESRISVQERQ
# [3] = target: T2, human CD40 on cells; test: cell-based or functional assay; remark: listed apart in the source
# [4] = target: T2, human CD40 on cells; test: cell-based or functional assay; remark: listed apart in the source
# Wherever moDC activation (IL-12p70, pg/mL) is given: test concentration or dose not given here.
# T1 sequence (P25942 21-193 limits assumed): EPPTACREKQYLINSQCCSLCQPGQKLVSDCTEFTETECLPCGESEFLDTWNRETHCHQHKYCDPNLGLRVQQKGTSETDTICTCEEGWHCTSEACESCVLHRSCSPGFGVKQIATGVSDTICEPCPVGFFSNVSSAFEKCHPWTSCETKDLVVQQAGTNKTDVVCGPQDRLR
OD450 Ratio [1],OD450 with anti-CD40 antibody [1],"moDC activation (IL-12p70, pg/mL) [2]",Maximal activation (OD655) in HEK293 blue CD40 NFκB reporter cells [3],"NFκB activation EC50 (SEAP, OD655) in HEK293 blue CD40 NFκB reporter cells [3]",Binder,further results
,,,0.32 OD655,4.31 µg/mL,"Humanized muAb6 #3 (antibody, V domains shown) VH: EVQLVQSGAEVKKPGSSVKVSCKASGYTFTSYWMHWVRQAPGQGLEWIGNIDPSNGETHYAQKFQGRVTITVDKSTSTAYMELSSLRSEDTAVYYCARERIYYSGSTYDGYFDVWGQGTTVTVSS VL: DIQLTQSPSFLSASVGDRVTITCSASSSLSYMHWYQQKPGKSPKRWIYDTSKLASGVPSRFSGSGSGTEYTLTISSLQPEDFATYYCQQWSSNPWTFGGGTKVEIK",
,,,0.2 OD655,1.21 µg/mL,"Humanized muAb6 #2 (antibody, V domains shown) VH: EVQLVQSGAEVKKPGSSVKVSCKASGYTFTSYWMHWVRQAPGQGLEWIGNIDPSNGETHYNQKFKDRVTITVDKSTSTAYMELSSLRSEDTAVYYCARERIYYSGSTYDGYFDVWGQGTTVTVSS VL: DIQLTQSPSFLSASVGDRVTITCSASSSLSYMHWYQQKPGKSPKRWIYDTSKLASGVPSRFSGSGSGTEYTLTISSLQPEDFATYYCQQWSSNPWTFGGGTKVEIK",
,,,0.26 OD655,0.19 µg/mL,"Humanized muAb9 #1 (antibody, V domains shown) VH: EVQLQESGPGLVKPSETLSLTCTVSGYSITSNYYWNWIRQPPGKGLEWMGYIRYDGSNNYNPSLKNRITISRDTSKNQFSLKLSSVTAADTAVYYCARLDYWGQGTTVTVSS VL: DAVMTQTPLSLSVTPGQPASISCRSSQSLENTNGNTFLNWFLQKPGQSPQLLIYRVSNRFSGVPDRFSGSGSGTDFTLKISRVEAEDVGVYFCLQVTHVPFTFGQGTKLEIK",
,,,0.27 OD655,0.29 µg/mL,"Humanized muAb9 #2 (antibody, V domains shown) VH: EVQLQESGPGLVKPSETLSLTCTVSGYSITSNYYWNWIRQPPGKGLEWMGYIRYDGSNNYNPSLKNRVTISRDTSKNQFSLKLSSVTAADTAVYYCARLDYWGQGTTVTVSS VL: DAVMTQTPLSLSVTPGQPASISCRSSQSLENTNGNTFLNWFLQKPGQSPQLLIYRVSNRFSGVPDRFSGSGSGTDFTLKISRVEAEDVGVYFCLQVTHVPFTFGQGTKLEIK",
,,,0.27 OD655,0.18 µg/mL,"Humanized muAb9 #3 (antibody, V domains shown) VH: EVQLQESGPGLVKPSETLSLTCTVSGYSISSNYYWNWIRQPPGKGLEWMGYIRYDGSNNYNPSLKSRVTISRDTSKNQFSLKLSSVTAADTAVYYCARLDYWGQGTTVTVSS VL: DAVMTQTPLSLSVTPGQPASISCRSSQSLENTNGNTFLNWFLQKPGQSPQLLIYRVSNRFSGVPDRFSGSGSGTDFTLKISRVEAEDVGVYFCLQVTHVPFTFGQGTKLEIK",
,,,0.61 OD655,5.55 µg/mL,"Humanized muAb9 #4 (antibody, V domains shown) VH: EVQLQESGPGLVKPSETLSLTCTVSGYSITSNYYWNWIRQPPGKGLEWMGYIRYDGSNNYNPSLKNRITISRDTSKNQFSLKLSSVTAADTAVYYCARLDYWGQGTTVTVSS VL: DAVMTQTPLSLSVTPGQPASISCRSSQSLENTNGNTFLNWYLQKPGQSPQLLIYRVSNRFSGVPDRFSGSGSGTDFTLKISRVEAEDVGVYYCLQVTHVPFTFGQGTKLEIK",
,,,0.54 OD655,5.95 µg/mL,"Humanized muAb9 #6 (antibody, V domains shown) VH: EVQLQESGPGLVKPSETLSLTCTVSGYSISSNYYWNWIRQPPGKGLEWMGYIRYDGSNNYNPSLKSRVTISRDTSKNQFSLKLSSVTAADTAVYYCARLDYWGQGTTVTVSS VL: DAVMTQTPLSLSVTPGQPASISCRSSQSLENTNGNTFLNWYLQKPGQSPQLLIYRVSNRFSGVPDRFSGSGSGTDFTLKISRVEAEDVGVYYCLQVTHVPFTFGQGTKLEIK",

# Further lines, the binder ahead of its results:
Binder,OD450 Ratio [1],OD450 with anti-CD40 antibody [1],"moDC activation (IL-12p70, pg/mL) [2]",Maximal activation (OD655) in HEK293 blue CD40 NFκB reporter cells [3],"NFκB activation EC50 (SEAP, OD655) in HEK293 blue CD40 NFκB reporter cells [3]",further results
"AD165.1.2 (antibody, V domains shown, mouse hybridoma monoclonal; also called muAb5) VH: DVQLQESGPGLVEPSQSLFLTCSVTGYSITTNYNWNWIRQFPGNKLEWMGYIRHDGTNNYNPSLKNRISIIRDTPKNQFFLKLNSVTTEDTAIYFCTRLDYWGQGTSVTVSS VL: DAVMTQTPLSLPVSLGDQASISCRSSQSLENSYGNTFLNWFLQRPGQSPQLLIYRVSNRFCGVPDRFSGSGSGTDFTLKISRVEAEDLGIYFCLQVTHVPYTFGGGTKLEIK",1.24 ratio to isotype control,0.989 OD450,720 pg/mL,,,
"AD163.7.2 (antibody, V domains shown, mouse hybridoma monoclonal; also called muAb8) VH: QVQLQQSGPELVKSGASVKISCKASGYTFTDYYINWVKQRPGQGLEWIGWIFPGSGSVYCNEQFKGQATLTVDRSSSTAYMLLSSLTSEDSAVYFCASSLGKFAYWGQGTLVTVSA VL: DIVMTQSQKFMSTTVGDRVSITCKASQSVVTAVAWYQQKPGQSPKLLIYSASNRYTGVPDRFTGSGSGTDFALTIRTMQSEDLADYFCQQYSSYPYTFGGGTKLEIK",0.08 ratio to isotype control,0.066 OD450,905 pg/mL,,,
"Humanized muAb6 #1 (antibody, V domains shown) VH: EVQLVQSGAEVKKPGSSVKVSCKASGYTFTSYWMHWVRQAPGQGLEWIGNIDPSNGETHYNQKFKDRATLTVDKSTSTAYMELSSLRSEDTAVYYCARERIYYSGSTYDGYFDVWGQGTTVTVSS VL: DIQLTQSPSFLSASVGDRVTITCSASSSLSYMHWYQQKPGKSPKRWIYDTSKLASGVPSRFSGSGSGTEYTLTISSLQPEDFATYYCQQWSSNPWTFGGGTKVEIK",,,,0.26 OD655,1.09 µg/mL,
"CP-870,893 (antibody, human IgG2, kappa, V domains shown) VH: not shown VL: DIQMTQSPSSVSASVGDRVTITCRASQGIYSWLAWYQQKPGKAPNLLIYTASTLQSGVPSRFSGSGSGTDFTLTISSLQPEDFATYYCQQANIFPLTFGGGTKVEIKR",,,,,,NFκB activity EC50; HEK293 blue CD40 reporter cells co-cultured with CHO cells expressing CD16F [4]: 0.03 nM; NFκB activity EC50; HEK293 blue CD40 reporter cells co-cultured with CHO cells expressing CD16V [4]: 0.02 nM; NFκB activity EC50; HEK293 blue CD40 reporter cells co-cultured with CHO cells expressing CD32a [4]: 0.02 nM; NFκB activity EC50; HEK293 blue CD40 reporter cells co-cultured with CHO cells expressing CD32b [4]: 0.02 nM; NFκB activity EC50; HEK293 blue CD40 reporter cells co-cultured with CHO cells expressing CD64 [4]: 0.02 nM; NFκB activity EC50; HEK293 blue CD40 reporter cells co-cultured with FcγR negative CHO cells [4]: 0.03 nM
"AD163.9.3 (antibody, V domains shown, mouse hybridoma monoclonal; also called muAb1) VH: QVQLQQPGAELVKPGASVKMSCKASGYTFTSYWITWVKQRPGQGLEWIGEINPGSGSTNYNEKFKSKATLTVDTSSSTAYMQLSSLTSEDSAVYYCARNRGTGDYWGQGTTLTVSS VL: DVVMTQTPLSLPVSLGDQASISCRSSQSLVHSYGNTYLHWYLQKPGQSPKFLIYKVSNRISGVPDRLSGSGSGTDFTLKISRVEPEDLGVYFCSQSTHVPYTFGGGTKLEIK",2.22 ratio to isotype control,1.78 OD450,2220 pg/mL,,,
"AD166.4.4 (antibody, V domains shown, mouse hybridoma monoclonal; also called muAb2) VH: QVQLQQSGAELMKPGASAKLSCKATGYTFTGYWIQWVKQRPGHGLEWIGEILPGGDHTKYNEKFRGKATFTSDTSSNTVYMQLSSLTTEDSAIYYCARVGGDYWGQGTTLTVSS VL: DVVMTQTPLSLPVSLGDQASISCRSSQSLVNSNENTYLHWYLQKPGQSPKLLIYKVFNRYSGVPDRFSGSGSGTDFTLKISRVEAEDLGVYFCFQSTHVPWTFGGGTKLEIK",1.28 ratio to isotype control,1.02 OD450,0 pg/mL,,,
"AD164.76.3 (antibody, V domains shown, mouse hybridoma monoclonal; also called muAb10) VH: DVQLQESGPGLVKPSQSLSLTCSVTGYSITSNYYWNWIRQFPGNKLEWMGYIRYDGSNNYNPSLKNRISITRDTSKNQFFLRLNSVTTEDTATYYCTRLDYWGQGTTLTVSS VL: DAVMTQTPLSLPVSLGDQASISCRSSQSLENSNGNTFLNWFLQKPGQSPQLLIYRISNRFSGVPDRFSGSGSGTDFTLKISRVEAEDLGVYFCLQVTHVPFTFGSGTKLEIK",2.63 ratio to isotype control,2.11 OD450,770 pg/mL,,,
"AD164.14.6 (antibody, V domains shown, mouse hybridoma monoclonal; also called muAb9) VH: DVQLQESGPGLVKPSQSLSLTCSVTGYSITSNYYWNWIRQFPGNKLEWMGYIRYDGSNNYNPSLKNRISITRDTSKNQFFLKLNSVTTEDTATYYCARLDYWGQGTTLTVSS VL: DAVMTQTPLSLPVSLGDQASISCRSSQSLENTNGNTFLNWFLQKPGQSPQLLIYRVSNRFSGVPDRFSGSGSGTDFTLKISRVEAEDLGVYFCLQVTHVPFTFGSGTKLEIK",2.35 ratio to isotype control,1.88 OD450,878 pg/mL,,,
"AD163.162.1 (antibody, V domains shown, mouse hybridoma monoclonal; also called muAb6) VH: QVQLQQPGAELVRPGSSVKLSCKASGYTFTSYWMHWVKQRPIQGLEWIGNIDPSNGETHYNQKFKDKATLTVDKSSSTAYMQLSSLTSEDSAVYYCARERIYYSGSTYDGYFDVWGTGTTVTVSS VL: QIVLTQSPAIMSASPGEKVTMTCSASSSLSYMHWYQQKSGTSPKRWIYDTSKLASGVPARFSGSGSGTSYSLTISSMEAEDAATYYCQQWSSNPWTFGGGTKLEIK",0.57 ratio to isotype control,0.455 OD450,2160 pg/mL,,,
"AD163.27.12 (antibody, V domains shown, mouse hybridoma monoclonal; same VH as muAb6; also called muAb7) VH: QVQLQQPGAELVRPGSSVKLSCKASGYTFTSYWMHWVKQRPIQGLEWIGNIDPSNGETHYNQKFKDKATLTVDKSSSTAYMQLSSLTSEDSAVYYCARERIYYSGSTYDGYFDVWGTGTTVTVSS VL: QIVLTQSPAIMSASPGEKVTMTCSASSSLSYMHWYQQKSGTSPKRWIYDTSKLASGVPARFSGSGSGTSYSLTISSMEGEDGATYYCQQWSSNPWTFGGGTKLEIK",0.41 ratio to isotype control,0.328 OD450,1510 pg/mL,,,
"AD163.10.7 (antibody, V domains shown, mouse hybridoma monoclonal; also called muAb4) VH: LVQPGGSLSLSCAASGFTFSDYYMSWVRQPPGKALEWLGFIRNKANGYTTEFSASVKGRFTISRDNSQSILYLQMNALRAEDSATYYCARYGGLRQGWYFDVWGTGTTVTVSS VL: DIQMTQTTSSLSASLGDRVTISCRASQDIRNYLNWYQQKPDGTVKLLIYYTSRLHSGVPSRFSGSGSGTDYSLTISNLEQEDIATYFCQQGKTLPWTFGGGSKLEMK",1.68 ratio to isotype control,1.34 OD450,1320 pg/mL,,,
